Results taken from paper PMC10501992, “How Pol α-primase is targeted to replisomes to prime eukaryotic DNA replication” (Molecular Cell, 2023).

Columns and labels:
Experiment in all cases: cryo-EM structure; budding yeast replisome: 150 nM CMG on fork DNA (39 nt 3′ flap, 60 nt 5′ flap) with 1.5-fold molar excess of Tof1-Csm3, Mrc1 and Pol α-primase; 25 mM HEPES-NaOH pH 7.6, 150 mM NaOAc, 0.5 mM TCEP, 500 μM AMP-PNP, 10 mM Mg(OAc)2, on ice; 10-30% glycerol gradient with glutaraldehyde and BS3 cross-linkers
[1] = biological target: T1, budding yeast CMG (Cdc45-Mcm2-7-GINS) replicative helicase (S. cerevisiae, UniProt Q08032 1-650; P29469 1-868; P24279 1-971; P30665 1-933; P29496 1-775; P53091 …); details: both partners purified
T1 construct: Cdc45, S. cerevisiae; Mcm2, S. cerevisiae; Mcm3, S. cerevisiae; Mcm4, S. cerevisiae (named only within Mcm2-7); Mcm5, S. cerevisiae; Mcm6, S. cerevisiae (named only within Mcm2-7); Mcm7, S. cerevisiae (named only within Mcm2-7); Psf1, subunit of GINS, S. cerevisiae; Psf2, subunit of GINS, S. cerevisiae; Sld5, subunit of GINS, S. cerevisiae; source: S. cerevisiae strain yJY197, expressed and …

[2] = biological target: T2, Pol1 (budding yeast Pol α catalytic subunit) (S. cerevisiae, UniProt P13382 1-1468); details: both partners purified
T2 construct: Pol1, S. cerevisiae; modelled: CTD 1271-1468 and CIP box F140-S149; stood in the assay as a subunit of m1; also called Pol1CTD; Pol1CIP; source: subunit of Pol α-primase from S. cerevisiae strain yAE95, purified as described previously
T2 sequence: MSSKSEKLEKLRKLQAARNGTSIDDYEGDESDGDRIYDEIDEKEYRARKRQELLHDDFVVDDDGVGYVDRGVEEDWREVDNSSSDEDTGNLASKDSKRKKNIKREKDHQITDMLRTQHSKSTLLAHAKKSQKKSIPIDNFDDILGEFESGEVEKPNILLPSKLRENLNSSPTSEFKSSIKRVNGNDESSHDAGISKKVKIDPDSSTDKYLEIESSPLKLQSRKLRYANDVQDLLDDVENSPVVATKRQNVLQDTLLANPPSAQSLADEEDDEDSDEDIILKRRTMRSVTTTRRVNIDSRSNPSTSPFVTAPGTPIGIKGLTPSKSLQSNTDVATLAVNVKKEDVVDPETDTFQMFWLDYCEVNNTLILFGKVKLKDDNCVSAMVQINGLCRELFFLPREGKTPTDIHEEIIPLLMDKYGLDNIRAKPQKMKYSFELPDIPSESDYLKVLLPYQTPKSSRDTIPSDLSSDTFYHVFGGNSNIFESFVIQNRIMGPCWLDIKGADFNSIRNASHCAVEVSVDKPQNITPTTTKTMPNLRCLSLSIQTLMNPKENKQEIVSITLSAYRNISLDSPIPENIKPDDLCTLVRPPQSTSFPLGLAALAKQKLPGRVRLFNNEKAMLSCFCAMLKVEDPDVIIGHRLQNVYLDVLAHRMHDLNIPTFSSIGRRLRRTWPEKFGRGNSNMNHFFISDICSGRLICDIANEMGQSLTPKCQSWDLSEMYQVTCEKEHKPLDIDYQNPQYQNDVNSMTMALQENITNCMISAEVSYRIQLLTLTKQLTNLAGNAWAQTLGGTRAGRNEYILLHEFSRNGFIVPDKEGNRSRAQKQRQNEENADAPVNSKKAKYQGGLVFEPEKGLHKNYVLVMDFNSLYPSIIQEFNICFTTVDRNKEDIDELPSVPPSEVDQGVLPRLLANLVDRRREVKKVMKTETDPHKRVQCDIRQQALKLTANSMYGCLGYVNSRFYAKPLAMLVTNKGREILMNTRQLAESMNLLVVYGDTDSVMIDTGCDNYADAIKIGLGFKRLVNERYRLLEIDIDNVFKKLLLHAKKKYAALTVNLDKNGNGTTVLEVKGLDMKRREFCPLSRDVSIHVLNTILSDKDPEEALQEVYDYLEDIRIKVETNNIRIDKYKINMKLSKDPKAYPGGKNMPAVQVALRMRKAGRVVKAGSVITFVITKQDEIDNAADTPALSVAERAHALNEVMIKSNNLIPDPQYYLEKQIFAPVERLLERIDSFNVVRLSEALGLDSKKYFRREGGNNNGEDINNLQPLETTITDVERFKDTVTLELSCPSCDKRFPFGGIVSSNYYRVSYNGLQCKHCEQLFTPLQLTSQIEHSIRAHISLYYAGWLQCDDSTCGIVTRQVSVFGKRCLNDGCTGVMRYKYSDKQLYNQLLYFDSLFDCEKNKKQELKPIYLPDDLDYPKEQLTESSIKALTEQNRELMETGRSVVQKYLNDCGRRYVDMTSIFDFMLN

[3] = biological target: the molecule itself
Tof1 (budding yeast) = biological target: T3, Tof1 (budding yeast) (S. cerevisiae, UniProt P53840 1-1238); details: both partners purified
T3 construct: Tof1, S. cerevisiae; stood in the assay as a subunit of m13; source: subunit of Tof1-Csm3 from S. cerevisiae strain yAE48, purified as described previously
T3 sequence: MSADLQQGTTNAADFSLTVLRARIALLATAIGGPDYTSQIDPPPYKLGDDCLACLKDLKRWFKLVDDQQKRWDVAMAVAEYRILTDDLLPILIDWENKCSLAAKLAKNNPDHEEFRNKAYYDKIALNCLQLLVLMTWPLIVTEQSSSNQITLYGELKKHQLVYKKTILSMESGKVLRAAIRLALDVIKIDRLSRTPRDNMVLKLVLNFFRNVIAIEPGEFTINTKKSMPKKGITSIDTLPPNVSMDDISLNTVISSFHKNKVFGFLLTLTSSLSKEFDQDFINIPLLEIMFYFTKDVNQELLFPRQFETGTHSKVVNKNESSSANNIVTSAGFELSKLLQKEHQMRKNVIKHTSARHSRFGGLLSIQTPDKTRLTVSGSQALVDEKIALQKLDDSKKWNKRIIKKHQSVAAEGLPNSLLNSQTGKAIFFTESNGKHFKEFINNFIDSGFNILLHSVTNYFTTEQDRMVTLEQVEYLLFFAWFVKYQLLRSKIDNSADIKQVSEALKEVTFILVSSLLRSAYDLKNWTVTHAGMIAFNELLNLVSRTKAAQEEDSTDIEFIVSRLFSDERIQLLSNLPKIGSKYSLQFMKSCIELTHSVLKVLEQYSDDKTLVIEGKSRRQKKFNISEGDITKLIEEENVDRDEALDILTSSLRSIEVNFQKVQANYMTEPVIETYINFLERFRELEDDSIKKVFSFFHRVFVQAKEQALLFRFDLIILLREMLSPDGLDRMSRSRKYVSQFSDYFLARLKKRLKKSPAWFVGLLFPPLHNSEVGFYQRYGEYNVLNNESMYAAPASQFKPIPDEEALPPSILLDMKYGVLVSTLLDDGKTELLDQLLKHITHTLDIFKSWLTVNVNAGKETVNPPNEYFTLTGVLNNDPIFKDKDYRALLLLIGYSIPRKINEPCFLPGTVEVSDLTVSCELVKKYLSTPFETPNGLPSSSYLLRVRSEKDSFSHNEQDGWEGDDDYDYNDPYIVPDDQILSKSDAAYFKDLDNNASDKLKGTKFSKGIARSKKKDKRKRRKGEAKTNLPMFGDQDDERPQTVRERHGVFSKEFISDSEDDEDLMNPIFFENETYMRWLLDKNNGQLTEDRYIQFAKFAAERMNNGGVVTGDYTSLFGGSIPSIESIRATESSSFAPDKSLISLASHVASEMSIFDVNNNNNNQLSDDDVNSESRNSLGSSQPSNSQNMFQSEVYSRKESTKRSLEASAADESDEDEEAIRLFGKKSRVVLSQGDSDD

B1: Ctf4 (budding yeast) (natural protein, UniProt Q01454 1-927, looked up)
chain: MVSVIDKLVFDFGGKTLVSLAPDNNTLCVANKNGLTKILKTNNPEEEPETLDSSKLVSSIKCYSNSHFLMTTMQGDALRYNIDSSQEELLARFALPLRDCCVIHSGKMAVFGGDDLELILLELDDETHKKHAIKIDEQVSQISYNSQMNILAVSMINGKVQIFSLTSTIPNKVHELNDYIVANSYDDTHRDKILSNMMDDIDKDNDNDLSETADPDENNVADPEFCAANRICTRVAWHPKGLHFALPCADDTVKIFSIKGYSLQKTLSTNLSSTKAHFIDLQFDPLRGTYIAAVDLNNKLTVWNWETSEIHYTREFKRKITNIAWKIQADSKTLDLVLGTWSGSIAIVQNLAESVVSNIPDQSVAESSTKHGLFVDSESDLENLEGNDDINKSDKLFSDITQEANAEDVFTQTHDGPSGLSEKRKYNFEDEEDFIDDDDGAGYISGKKPHNEHSYSRVHKTHSFPISLANTGKFRYMPFSPAGTPFGFTDRRYLTMNEVGYVSTVKNSEQYSITVSFFDVGRFREYHFEDLFGYDLCFLNEKGTLFGQSKTGQIQYRPHDSIHSNWTKIIPLQAGERITSVAATPVRVIVGTSLGYFRSFNQFGVPFAVEKTSPIVALTAQNYRVFSVHYSQFHGLSYSLSELGTSSKRYYKRECPLPMSLPNINSDMKKDANLDYYNFNPMGIKSLFFSSYGDPCIFGSDNTLLLLSKWRSPEESKWLPILDSNMEIWKMSGGKETTDIHVWPLALAYDTLNCILVKGKHIWPEFPLPLPSEMEIRMPVFVKSKLLEENKAILNKKNEIGADTEAEEGEEDKEIQIPVSMAAEEEYLRSKVLSELLTDTLENDGEMYGNENEVLAALNGAYDKALLRLFASACSDQNVEKALSLAHELKQDRALTAAVKISERAELPSLVKKINNIREARYEQQLK
notes: Ctf4, S. cerevisiae; the results say that Ctf4 was not added to the yeast reconstitution; the general method lists Ctf4/AND-1 among the proteins added; source: endogenous Ctf4 likely co-purifying with CMG from S. cerevisiae
[1]
  binding result: binds
[2]
  binding result: binds
[3]
  stoichiometry N: 3

B2: Mrc1 (budding yeast) (natural protein, S. cerevisiae)
chain: MDDALHALSSLTAKKRTTTYKKVAVPILDENDNTNGNGPNDIDNPPELTGNGFLFANATLNRVKNRLEGKKAPEQNHNNGKDRSENSLPTQLISNLYDGGEELEKSEVKDNSYSEKNVSSSFTQTQRIPVSIQQDKVFNVPIHSVNDGKPTQLIKEDGLVNETSQALKTPLTTGRPGATQRIDSSGATSQTQPIKSIEPQSQIITTSSNHSNALSPKIPIIPTELIGTSPLFQSIQNRGPDTQMDVPPQTAHDEDKTQAIGIPQATHQEQKTQIDTVAQTLQDEVPHTLKIREIQSELASEDSKREKARNVEYKKPQKPIPTKKFFSKESFLADFDDSSSNEDDDIKLENAHPKPVQNDDELHENKSVELNLTDETRINEKRVPLLSSYANNLKREIDSSKCITLDLDSDSDEYGDDDMDSIKLSKDESVLPISQLSKATILNLKARLSKQNQKLSQRPNKSKDPKVDHNVLLNTLRKASRKQILDHQKEVIETKGLKLEDMAKEKEIVENLLEQEILRNKRIRQKEKRREKLEENDFQLNAHDSGSDSGSESSGFALSGNEIADYESSGSENDNRRESDSEKEDDEIILKQKKSHHVKHIINESDSDTEVEAKPKEKADESLPKRIAINLGHYGDNIGEDTDKFQETNVLDTQNIEEVMAERNTIENEVKDDVYVNEEADEAIRRQLIDKEKLQLKQKEKEHEAKIKELKKRGVTNFFEMEAEESEDEWHGIGGADGEGSDDYDSDLEKMIDDYSKNNFNPHEIREMLAAENKEMDIKMINKILYDIKNGGFRNKRAKNSLELELSDDDEDDVLQQYRLKRRELMRKRRLEIGDDAKLVKNPKSSAFFESMVEDIIEYKNPFGAEEEYNLDITSTATDLDTQDNSINVGDNTGNNEQKPVDQKNKKVIISEDFVQKSLSFLKSNNYEDFETDKELSRIQHGNDEAIEDLYTLKQNSSIKSFTNSQTDSTTSKTVNTIIDLEKRPEDEDEVENGDTSLVGVFKHPSIIKSFASRTDINDKFKEGNKTVKILKSYKTVGSSKASITYMGKTRKLIAPKRKTEGSHRYHHDHHNKKMKMKTKTKSNKLFESGQDSFDN
notes: Mrc1, S. cerevisiae; several small sections modelled (S339-K323 as printed, D468-Q483, N842-E858); source: S. cerevisiae strain yJY32, expressed and purified as described previously
Tof1 (budding yeast)
  binding result: binds
[1]
  binding result: binds
